# Source: the Human Domainome abundance scans (Beltran et al. 2025)
# ± gives the uncertainty stated by the source.
# B1: Apoptosis-associated speck-like protein containing a CARD, residues 114 to 194; numbered along this chain, Q9ULZ3 (parent)
# chain: FIDQHRAALIARVTNVEWLLDALYGKVLTDEQYQAVRAEPTNPSKMRKLFSFTPAWNWTCKDLLLQALRESQSYLVEDLER
# Variants of: B1
# Test: abundance fitness (aPCA) (normalised: wild type 0, dead -1); higher = more abundant; growth selection in yeast, the domain comes from the species named
# Settings: Homo sapiens
row,Variant,abundance fitness
1,FIDQSRAALIARVTNVEWLLDALYGKVLTDEQYQAVRAEPTNPSKMRKLFSFTPAWNWTCKDLLLQALRESQSYLVEDLER [H5S],-0.657 ± 0.09
2,FIDQRRAALIARVTNVEWLLDALYGKVLTDEQYQAVRAEPTNPSKMRKLFSFTPAWNWTCKDLLLQALRESQSYLVEDLER [H5R],-0.743 ± 0.062
3,FIDQKRAALIARVTNVEWLLDALYGKVLTDEQYQAVRAEPTNPSKMRKLFSFTPAWNWTCKDLLLQALRESQSYLVEDLER [H5K],-0.605 ± 0.19
4,FIDQNRAALIARVTNVEWLLDALYGKVLTDEQYQAVRAEPTNPSKMRKLFSFTPAWNWTCKDLLLQALRESQSYLVEDLER [H5N],-0.157 ± 0.12
5,FIDQWRAALIARVTNVEWLLDALYGKVLTDEQYQAVRAEPTNPSKMRKLFSFTPAWNWTCKDLLLQALRESQSYLVEDLER [H5W],-0.381 ± 0.071
6,FIDQDRAALIARVTNVEWLLDALYGKVLTDEQYQAVRAEPTNPSKMRKLFSFTPAWNWTCKDLLLQALRESQSYLVEDLER [H5D],-0.751 ± 0.24
7,FIDQGRAALIARVTNVEWLLDALYGKVLTDEQYQAVRAEPTNPSKMRKLFSFTPAWNWTCKDLLLQALRESQSYLVEDLER [H5G],-0.833 ± 0.082
8,FIDQLRAALIARVTNVEWLLDALYGKVLTDEQYQAVRAEPTNPSKMRKLFSFTPAWNWTCKDLLLQALRESQSYLVEDLER [H5L],-0.071 ± 0.042
9,FIDQQRAALIARVTNVEWLLDALYGKVLTDEQYQAVRAEPTNPSKMRKLFSFTPAWNWTCKDLLLQALRESQSYLVEDLER [H5Q],-0.341 ± 0.11
10,FIDQERAALIARVTNVEWLLDALYGKVLTDEQYQAVRAEPTNPSKMRKLFSFTPAWNWTCKDLLLQALRESQSYLVEDLER [H5E],-0.441 ± 0.11
11,FIDQMRAALIARVTNVEWLLDALYGKVLTDEQYQAVRAEPTNPSKMRKLFSFTPAWNWTCKDLLLQALRESQSYLVEDLER [H5M],-0.145 ± 0.075
12,FIDQPRAALIARVTNVEWLLDALYGKVLTDEQYQAVRAEPTNPSKMRKLFSFTPAWNWTCKDLLLQALRESQSYLVEDLER [H5P],-0.741 ± 0.13
13,FIDQVRAALIARVTNVEWLLDALYGKVLTDEQYQAVRAEPTNPSKMRKLFSFTPAWNWTCKDLLLQALRESQSYLVEDLER [H5V],-0.147 ± 0.057
14,FIDQTRAALIARVTNVEWLLDALYGKVLTDEQYQAVRAEPTNPSKMRKLFSFTPAWNWTCKDLLLQALRESQSYLVEDLER [H5T],-0.602 ± 0.086
15,FIDQIRAALIARVTNVEWLLDALYGKVLTDEQYQAVRAEPTNPSKMRKLFSFTPAWNWTCKDLLLQALRESQSYLVEDLER [H5I],-0.057 ± 0.13
16,FIDQARAALIARVTNVEWLLDALYGKVLTDEQYQAVRAEPTNPSKMRKLFSFTPAWNWTCKDLLLQALRESQSYLVEDLER [H5A],-0.276 ± 0.08
17,FIDQYRAALIARVTNVEWLLDALYGKVLTDEQYQAVRAEPTNPSKMRKLFSFTPAWNWTCKDLLLQALRESQSYLVEDLER [H5Y],-0.316 ± 0.11

row,Variant,abundance fitness
1,FIDQFRAALIARVTNVEWLLDALYGKVLTDEQYQAVRAEPTNPSKMRKLFSFTPAWNWTCKDLLLQALRESQSYLVEDLER [H5F],-0.553 ± 0.12
2,FIDCHRAALIARVTNVEWLLDALYGKVLTDEQYQAVRAEPTNPSKMRKLFSFTPAWNWTCKDLLLQALRESQSYLVEDLER [Q4C],-0.43 ± 0.14
3,FIDFHRAALIARVTNVEWLLDALYGKVLTDEQYQAVRAEPTNPSKMRKLFSFTPAWNWTCKDLLLQALRESQSYLVEDLER [Q4F],-0.34 ± 0.23
4,FIDAHRAALIARVTNVEWLLDALYGKVLTDEQYQAVRAEPTNPSKMRKLFSFTPAWNWTCKDLLLQALRESQSYLVEDLER [Q4A],-0.358 ± 0.064
5,FIDDHRAALIARVTNVEWLLDALYGKVLTDEQYQAVRAEPTNPSKMRKLFSFTPAWNWTCKDLLLQALRESQSYLVEDLER [Q4D],-0.432 ± 0.24
6,FIDLHRAALIARVTNVEWLLDALYGKVLTDEQYQAVRAEPTNPSKMRKLFSFTPAWNWTCKDLLLQALRESQSYLVEDLER [Q4L],-0.352 ± 0.059
7,FIDIHRAALIARVTNVEWLLDALYGKVLTDEQYQAVRAEPTNPSKMRKLFSFTPAWNWTCKDLLLQALRESQSYLVEDLER [Q4I],-0.015 ± 0.12
8,FIDHHRAALIARVTNVEWLLDALYGKVLTDEQYQAVRAEPTNPSKMRKLFSFTPAWNWTCKDLLLQALRESQSYLVEDLER [Q4H],-0.315 ± 0.14
9,FIDMHRAALIARVTNVEWLLDALYGKVLTDEQYQAVRAEPTNPSKMRKLFSFTPAWNWTCKDLLLQALRESQSYLVEDLER [Q4M],-0.161 ± 0.079
10,FIDKHRAALIARVTNVEWLLDALYGKVLTDEQYQAVRAEPTNPSKMRKLFSFTPAWNWTCKDLLLQALRESQSYLVEDLER [Q4K],-0.111 ± 0.074
11,FIDTHRAALIARVTNVEWLLDALYGKVLTDEQYQAVRAEPTNPSKMRKLFSFTPAWNWTCKDLLLQALRESQSYLVEDLER [Q4T],0.117 ± 0.07
12,FIDPHRAALIARVTNVEWLLDALYGKVLTDEQYQAVRAEPTNPSKMRKLFSFTPAWNWTCKDLLLQALRESQSYLVEDLER [Q4P],-1.03 ± 0.18
13,FIDNHRAALIARVTNVEWLLDALYGKVLTDEQYQAVRAEPTNPSKMRKLFSFTPAWNWTCKDLLLQALRESQSYLVEDLER [Q4N],-0.103 ± 0.12
14,FIDVHRAALIARVTNVEWLLDALYGKVLTDEQYQAVRAEPTNPSKMRKLFSFTPAWNWTCKDLLLQALRESQSYLVEDLER [Q4V],-0.165 ± 0.063
15,FIDWHRAALIARVTNVEWLLDALYGKVLTDEQYQAVRAEPTNPSKMRKLFSFTPAWNWTCKDLLLQALRESQSYLVEDLER [Q4W],-0.802 ± 0.15
16,FIDRHRAALIARVTNVEWLLDALYGKVLTDEQYQAVRAEPTNPSKMRKLFSFTPAWNWTCKDLLLQALRESQSYLVEDLER [Q4R],-0.19 ± 0.043
17,FIDGHRAALIARVTNVEWLLDALYGKVLTDEQYQAVRAEPTNPSKMRKLFSFTPAWNWTCKDLLLQALRESQSYLVEDLER [Q4G],-0.685 ± 0.081
